How the values were obtained:
SEC-MALS = target: the molecule itself; experiment: SEC-MALS
cross-linking = target: the molecule itself; experiment: cross-linking

B1: mouse TRIM56 coiled-coil domain (residues 215-303) (domain or fragment, UniProt Q80VI1 215-303, looked up)
chain: GLEELLAGVDSNLVELEATRVAEKEALALLREQAASVGTQVEEAAERILKSLLAQKQEVLGQLRALVEAAEEATRERLTKIERQEQVAK
stoichiometry N (SEC-MALS): 4

B2: mouse TRIM56 coiled-coil domain mutant (L244A, V251A, V255A, I262A, L266A, Q269A, V273A, Q276A, L277A, L280A, R291A) (domain or fragment, UniProt Q80VI1 215-303, looked up)
chain: GLEELLAGVDSNLVELEATRVAEKEALALAREQAASAGTQAEEAAERALKSALAAKQEALGAARAAVEAAEEATREALTKIERQEQVAK
stoichiometry N (SEC-MALS): 2

B3: mouse TRIM56 RING domain (residues 2-88) (domain or fragment, UniProt Q80VI1 2-88, looked up)
chain: NSKVSSPTLLEALSSDFLACKICLEQLHTPKTLPCLHTYCQDCLAQLDIGGQVRCPECREIVPVPAEGVAAFKTNFFVNGLLDLVKA
stoichiometry N (SEC-MALS): 2

B4: FLAG-tagged full-length mouse TRIM56, wild type (natural protein, UniProt Q80VI1 1-734, looked up)
chain: MNSKVSSPTLLEALSSDFLACKICLEQLHTPKTLPCLHTYCQDCLAQLDIGGQVRCPECREIVPVPAEGVAAFKTNFFVNGLLDLVKARAPGDVHSGKPTCALCPLVGGKSSGGPATARCLDCADDLCQACADGHRCSRQTHKHRVVDLVGYRAGWYDEEARERQASQCPQHPGEALCFLCQPCSQLLCKDCRLGPHIDHPCLPLAEAVRSRKPGLEELLAGVDSNLVELEATRVAEKEALALLREQAASVGTQVEEAAERILKSLLAQKQEVLGQLRALVEAAEEATRERLTKIERQEQVAKAAAAFARRVLSLGLEAEILSLEGAITQRLRQLQDAPWTSGPTRCVLPQLELHPGLEDKNCHLLRLIFEEPKQSPKDSGKGGAGTQGGDEAQGQGDDRTKIGKQGGAQPLTPKEGKDQNPQEDDGVFIERGNRPNKKKKCKGRGKSVSREPSPILRPNLEGSGLLPRPVFSWSFPTRMPGDKRSPRITGLCPYGPQEILVADEQNRVLKRFSLNGDYKGTVQVPEGCSPCSVAALQNAVAFSANAKLYLVSPDGEIQWRRSLSLTQSSHAVAAMPCGDRVAVSVAGHVEVYKKDGSLATRFIPGGKASRGQRALVFLTTSPQGNFVGSDWQQNSVVFCDGLGQVIWEYKGPGLHGCQPGSVSVDKKGYIFLTLREVNKVVILDPKGSLLGDFLTAYHGLEKPRVTTMVDGKYLVVSLSNGTIHVFRVRFPDS
stoichiometry N (cross-linking): 4

Reference: paper PMC10165346 (Computational and Structural Biotechnology Journal, 2023)
